Earlier results on one substance are cited in PMC6716120.

The data set concerns the target hexon (Human adenovirus 5) (UniProt P04133).

Chain of coagulation factor X (P00742 41-488): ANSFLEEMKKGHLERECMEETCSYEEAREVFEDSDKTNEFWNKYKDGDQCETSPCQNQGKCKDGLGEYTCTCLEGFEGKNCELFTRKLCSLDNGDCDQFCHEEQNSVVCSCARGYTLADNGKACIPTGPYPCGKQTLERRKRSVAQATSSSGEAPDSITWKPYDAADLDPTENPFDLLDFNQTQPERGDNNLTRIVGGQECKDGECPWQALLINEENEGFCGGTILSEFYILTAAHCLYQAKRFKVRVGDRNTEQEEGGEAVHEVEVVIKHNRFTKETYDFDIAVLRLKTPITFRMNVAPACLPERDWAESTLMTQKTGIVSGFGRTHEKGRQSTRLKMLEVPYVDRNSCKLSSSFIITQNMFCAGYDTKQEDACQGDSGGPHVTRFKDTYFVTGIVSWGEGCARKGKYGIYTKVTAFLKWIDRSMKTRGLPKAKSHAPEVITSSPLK
Chain of hexon (Human adenovirus 5) (P04133 2-952): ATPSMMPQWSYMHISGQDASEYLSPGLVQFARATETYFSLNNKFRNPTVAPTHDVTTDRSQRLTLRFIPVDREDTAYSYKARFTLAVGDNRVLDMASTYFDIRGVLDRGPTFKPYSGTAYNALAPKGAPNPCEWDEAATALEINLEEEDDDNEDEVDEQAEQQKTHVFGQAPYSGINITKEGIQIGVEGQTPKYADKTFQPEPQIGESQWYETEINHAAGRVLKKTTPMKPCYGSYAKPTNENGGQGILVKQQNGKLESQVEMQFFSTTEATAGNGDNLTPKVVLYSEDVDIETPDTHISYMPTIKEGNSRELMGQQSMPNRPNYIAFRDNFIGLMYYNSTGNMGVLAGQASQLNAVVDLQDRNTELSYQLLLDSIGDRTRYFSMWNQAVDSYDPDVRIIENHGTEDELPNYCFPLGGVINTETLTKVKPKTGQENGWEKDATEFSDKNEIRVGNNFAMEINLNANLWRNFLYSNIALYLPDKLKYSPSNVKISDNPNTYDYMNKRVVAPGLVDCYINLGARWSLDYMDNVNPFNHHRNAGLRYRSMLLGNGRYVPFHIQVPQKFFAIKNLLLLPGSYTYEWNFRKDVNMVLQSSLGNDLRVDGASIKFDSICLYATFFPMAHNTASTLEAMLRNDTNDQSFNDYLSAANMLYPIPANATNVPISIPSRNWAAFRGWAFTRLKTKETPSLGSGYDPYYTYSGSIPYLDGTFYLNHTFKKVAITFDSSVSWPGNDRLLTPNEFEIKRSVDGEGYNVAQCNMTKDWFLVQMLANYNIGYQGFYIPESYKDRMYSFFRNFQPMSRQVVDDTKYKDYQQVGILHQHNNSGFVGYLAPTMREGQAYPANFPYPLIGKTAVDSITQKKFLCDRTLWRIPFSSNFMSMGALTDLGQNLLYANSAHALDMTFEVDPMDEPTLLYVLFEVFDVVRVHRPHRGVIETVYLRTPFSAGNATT

One may read the Kd as the free concentration of one partner at which half of the binding sites on the other are occupied at equilibrium, for simple one-to-one binding. On to “coagulation factor X (from UniProt P00742)”, for which the Kd is 2 nM.
